One may read the Kd as a measure of binding affinity in units of concentration.

For one molecule, Kd results are on record in article PMC4046795.

This data set deals with recombinant human EGFR/ErbB1 Fc chimera (rhEGFR) (human, UniProt P00533 25-645). Nature of the data set: SPR. A general note: In SPR one partner is held on a chip, and binding of the other changes the refractive index at the surface.

B1: E07 anti-EGFR aptamer (structured_RNA)
RNA: GGCGCUCCGACCUUAGUCUCUGUGCCGCUAUAAUGCACGGAUUUAAUCGCCGUAGAAAAGCAUGUCAAAGCCGGAACCGUGUAGCACAGCAGAGAAUUAAAUGCCCGCCAUGACCAG
modifications: 2'-fluoropyrimidine
As to B1, the Kd turned out to be 112 nM.
